This note sets out measurements from the nanobody polyreactivity screen of Harvey et al. (2022).

The series can be described thus: yeast display, Sf9 membrane polyspecificity reagent, FACS + sequencing; frameworks hold sequencing errors. The method, boiled down:
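Sorting gates, low and high (top ~1%), were placed on anti-HA fluorescence to track expression and on streptavidin fluorescence to track reagent binding. A clone's polyreactivity label is taken from the gate it came out of. The reagent was 10% biotinylated, detergent-solubilized Sf9 membrane, applied for 1 hour at 4 °C to galactose-induced yeast display cells.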
As for “QVQLVESGGGLVQAGGSLRLSCAASGRIFYSYTMGWYRQAPGKEREMVAGINRSVGSTYYADSVKGRFTISRDNAKNTVYLQMNSLKPEDTAVYYCAAGSRRRSYYTFSSVHGHYYWGQGTQVTVSS”, the “polyreactivity (PSR sort gate)” value is listed as “high polyreactivity”.

With “QVQLVESGGGLVQAGGSLRLSCAASGRIFYTYAKGLSRQAPRKERELVATISNSGGSTYYADSVKGRFTISRDNAKNTVYLQMNSLKPEDTAVYSCAKDERAAPSASYAYYYWGQGTLVTVSS”, the “polyreactivity (PSR sort gate)” value is “low polyreactivity”.

Take “QVQLVESGGGLVQAGGSLRLSCAASGRIFYVYAMGRYRQAPGKERELVAAINWSGDSTYYADSVKGRFTISRDNAKNTVYLQLNSLKPEDTAVYYCARARPTGYNYWGQGTQVTVSS”: the “polyreactivity (PSR sort gate)” value is “high polyreactivity”. Regarding “QVQLVESGGGLVQAGGSLRLSCAASGRIFYVYAMGWYRQAPGKERELVADITRDGNTNYADSVKGRFTISRDNAKNTVYLQMNSLKPEDTAVYYCAAGGYPGTTYYGYDYWGQGTQVTVSS”, the “polyreactivity (PSR sort gate)” value was “low polyreactivity”. Regarding “QVQLVESGGGLVQAGGSLRLSCAASGRIFYVYGMGWYRQAPGKERELVAAISKRGDNTYYADSVKGRFTISRDNAKNTVYLQMNSLKPEDTAVYYCAAKYNYSPRAGFNFWGQGTQVTVSS”, the “polyreactivity (PSR sort gate)” value was “high polyreactivity”. As to “QVQLVESGGGLVQAGGSLRLSCAASGRIFYWNTMGWYRQAPGKEREFVAAILSRGDTTYYADSVKGRFTISRDNAKNTVYLQMNSLKPEDTAVYYCAARPVRYHYVPSMYYWGQGTQVTVSS”, the “polyreactivity (PSR sort gate)” value is “high polyreactivity”. With “QVQLVESGGGLVQAGGSLRLSCAASGRIFYWYAMGWYRQAPGKERELVATINSGGSTTYADSVKARFTISRDNAKNTVYLQMNSLKPEDTAVYYCARQRTVKKYYNWGQGTQVTVSS”, the “polyreactivity (PSR sort gate)” value was “high polyreactivity”.

As to “QVQLVESGGGLVQAGGSLRLSCAASGRIFYWYVMGWYRQAPGKERELVASISWSGGSTYYADSVKGRFTISRDNAKNTVYLQMNSLKPEDTAVYYCNAGSVYTVSLPGHPYDYWGQGTQVTVSS”, the “polyreactivity (PSR sort gate)” value was “low polyreactivity”.

“QVQLVESGGGLVQAGGSLRLSCAASGRIFYWYVMGWYRQAPGKERELVATIRYSGGNTYYADSVKGRFTISRDNAKNTVYLQMNSLKPEETEVYYCAAGSLYWGRSPTRGGQGGYWGQGTQVTVSS”: the “polyreactivity (PSR sort gate)” value was “high polyreactivity”. Regarding “QVQLVESGGGLVQAGGSLRLSCAASGRIFYYNAMGWYREAPGKERELVAVITRSGGRTFYADSVKGRFTISRDNAKNTVYLQMNSLKPEDTAVYYCAARYRYYPVTTRGYYWGQGTQVTVSS”, the “polyreactivity (PSR sort gate)” value is listed as “high polyreactivity”.

With “QVQLVESGGGLVQAGGSLRLSCAASGRIFYYNAMGWYRPAPGKERELVAAITGDGTTDYADSVKGRFTISRDNAKNTVYLQMNSLKPEDTAVYYCNAPFRYVPPEGSGPYDYWGQGTQVTVSS”, the “polyreactivity (PSR sort gate)” value is listed as “low polyreactivity”. As for “QVQLVESGGGLVQAGGSLRLSCAASGRIFYYNAMGWYRQAHGKERELVAAISFSDGSTYYADSVKGRFTISRDNAKNTVYLQMNSLKPEDTAVYYCAADIGYDYDYWGQGTQVTVSS”, the entry is “low polyreactivity”.

With “QVQLVESGGGLVQAGGSLRLSCAASGRIFYYNAMGWYRQAPGKERELVAAISGSGGRTYYADSVKGRFTISRDNAKNTVYLQMNSLKPEDTAVYYCAAAGYDSNGRYWGQGTQVTVSS”, the “polyreactivity (PSR sort gate)” value is “high polyreactivity”. With “QVQLVESGGGLVQAGGSLRLSCAASGRIFYYNAMGWYRQAPGKERELVAAITSGGSTNYADSVKGRFTISPDNAKNTVYLQMNSLKPEDTAVYYCNARRYGSPRSEVHYDYCGQGTQVTVSS”, the “polyreactivity (PSR sort gate)” value is recorded as “low polyreactivity”.

Consider “QVQLVESGGGLVQAGGSLRLSCAASGRIFYYNAMGWYRQAPGKERELVAAITSVGSTNYADSVKGSFTISRDNAKNTVYLQMNSLKPEDTAVYYCARASAWYVTLVGKYTKYDYWGQGTQVTVSS”, for which the “polyreactivity (PSR sort gate)” value was “low polyreactivity”.

“QVQLVESGGGLVQAGGSLRLSCAASGRIFYYNTMGWYRQAPGKERELVAAITRSGGSTYYADSVKGRFTISRDNAKNTVYLQMNSLKPEDTAVYYCAARSTHPGSVGYWGQGTQVTVSS”: the “polyreactivity (PSR sort gate)” value is on record as “high polyreactivity”.
